Laboratory results reported in patent publication US20030170203A1 (Human Genome Sciences, published 2003).

What was measured:
Assay in all cases: flow cytometry on transiently transfected cells
[1] = target: T1, RANK on transiently transfected cells (UniProt Q9Y6Q6 30-616, limits assumed)
T1 construct: whole, on cells
T1 sequence (looked up): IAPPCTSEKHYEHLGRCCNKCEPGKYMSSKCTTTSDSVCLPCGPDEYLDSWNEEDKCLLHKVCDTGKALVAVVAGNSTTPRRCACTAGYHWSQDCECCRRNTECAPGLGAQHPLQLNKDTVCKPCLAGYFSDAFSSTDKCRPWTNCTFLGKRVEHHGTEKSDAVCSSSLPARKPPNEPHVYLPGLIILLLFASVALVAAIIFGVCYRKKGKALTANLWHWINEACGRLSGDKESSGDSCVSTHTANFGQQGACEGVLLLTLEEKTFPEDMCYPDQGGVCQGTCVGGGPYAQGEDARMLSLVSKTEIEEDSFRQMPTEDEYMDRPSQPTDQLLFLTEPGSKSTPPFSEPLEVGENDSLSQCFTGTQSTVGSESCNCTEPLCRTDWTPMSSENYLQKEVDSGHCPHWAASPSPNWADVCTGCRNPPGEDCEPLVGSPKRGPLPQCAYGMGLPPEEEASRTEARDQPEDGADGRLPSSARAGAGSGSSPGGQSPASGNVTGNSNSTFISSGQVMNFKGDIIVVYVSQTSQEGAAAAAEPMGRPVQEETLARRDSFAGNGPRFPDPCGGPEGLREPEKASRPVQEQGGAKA
Description: (§1) One million cells, in 0.1 ml of FACS buffer (PBS, 0.1% BSA, 0.1% NaN₃), were incubated with 0.1-1 microgram of protein or antibody at RT for 15 min. The cells were washed with 3 ml of FACS buffer, reacted with biotinylated primary antibody, and stained with PE-conjugated secondary antibody at RT for 15 min. Cells were then washed again, resuspended in 0.5 microgram/ml of propidium iodide, and live cells were gated and analyzed on a FACScan using the CellQuest software (BD Biosciences).

[2] = target: T2, DcR2 on transiently transfected cells (UniProt Q9UBN6 56-386, limits assumed)
T2 construct: whole, on cells
T2 sequence (looked up): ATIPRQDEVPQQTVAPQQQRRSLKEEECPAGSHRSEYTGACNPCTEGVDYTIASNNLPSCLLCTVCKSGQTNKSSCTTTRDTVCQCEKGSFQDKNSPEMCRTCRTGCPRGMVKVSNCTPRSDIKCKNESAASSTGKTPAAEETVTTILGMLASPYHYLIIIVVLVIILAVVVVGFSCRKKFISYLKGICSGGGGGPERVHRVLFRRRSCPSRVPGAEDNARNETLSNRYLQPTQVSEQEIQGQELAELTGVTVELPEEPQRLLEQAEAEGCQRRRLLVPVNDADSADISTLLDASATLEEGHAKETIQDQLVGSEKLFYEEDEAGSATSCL
Description: as §1

[3] = target: T3, LTβR on transiently transfected cells (UniProt P36941 31-435, limits assumed)
T3 construct: whole, on cells
Description: as §1

[4] = target: T4, CD27 on transiently transfected cells (UniProt P26842 20-260, limits assumed)
T4 construct: whole, on cells
T4 sequence (looked up): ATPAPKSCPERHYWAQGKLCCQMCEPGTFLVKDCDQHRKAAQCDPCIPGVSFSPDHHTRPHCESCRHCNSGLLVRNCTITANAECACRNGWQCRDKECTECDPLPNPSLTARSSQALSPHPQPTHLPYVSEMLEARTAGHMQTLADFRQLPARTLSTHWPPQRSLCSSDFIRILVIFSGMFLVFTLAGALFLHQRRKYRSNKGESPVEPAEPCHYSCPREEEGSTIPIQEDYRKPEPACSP
Description: as §1

[5] = target: T5, CD30 on transiently transfected cells (UniProt P28908 19-595, limits assumed)
T5 construct: whole, on cells
T5 sequence (looked up): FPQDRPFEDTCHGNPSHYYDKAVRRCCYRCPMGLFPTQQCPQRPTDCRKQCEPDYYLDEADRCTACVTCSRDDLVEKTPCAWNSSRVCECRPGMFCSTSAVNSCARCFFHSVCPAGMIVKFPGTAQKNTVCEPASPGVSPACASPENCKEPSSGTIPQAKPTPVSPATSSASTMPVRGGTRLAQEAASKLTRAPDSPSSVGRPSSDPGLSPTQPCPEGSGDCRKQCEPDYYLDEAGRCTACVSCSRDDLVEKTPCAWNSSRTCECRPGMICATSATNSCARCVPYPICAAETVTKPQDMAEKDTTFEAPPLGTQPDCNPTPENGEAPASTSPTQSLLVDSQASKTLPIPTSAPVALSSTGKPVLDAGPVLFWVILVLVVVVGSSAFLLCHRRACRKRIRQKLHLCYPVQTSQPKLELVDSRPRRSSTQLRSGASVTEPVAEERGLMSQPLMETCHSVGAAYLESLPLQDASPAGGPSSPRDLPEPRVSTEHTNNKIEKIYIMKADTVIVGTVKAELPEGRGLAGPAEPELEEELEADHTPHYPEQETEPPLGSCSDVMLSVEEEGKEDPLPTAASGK
Description: as §1

[6] = target: T6, DR4 on transiently transfected cells (UniProt O00220 24-468, limits assumed)
T6 construct: whole, on cells
T6 sequence (looked up): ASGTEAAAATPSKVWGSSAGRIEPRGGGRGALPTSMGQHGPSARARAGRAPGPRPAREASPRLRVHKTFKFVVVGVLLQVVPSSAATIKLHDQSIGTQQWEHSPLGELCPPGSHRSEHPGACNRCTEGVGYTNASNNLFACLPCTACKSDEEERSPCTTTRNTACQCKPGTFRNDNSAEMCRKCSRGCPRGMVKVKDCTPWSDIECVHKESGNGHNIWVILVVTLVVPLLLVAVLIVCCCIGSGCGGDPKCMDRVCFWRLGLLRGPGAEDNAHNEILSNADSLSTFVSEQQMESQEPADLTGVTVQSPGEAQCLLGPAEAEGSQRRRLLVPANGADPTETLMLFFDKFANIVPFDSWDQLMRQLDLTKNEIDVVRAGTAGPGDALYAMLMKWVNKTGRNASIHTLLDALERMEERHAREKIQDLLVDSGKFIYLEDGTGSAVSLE
Description: as §1

[7] = target: T7, 4-1BB on transiently transfected cells (UniProt Q07011 24-255, limits assumed)
T7 construct: whole, on cells
Description: as §1

Measured: binding result

T3 sequence (P36941 31-435 limits assumed): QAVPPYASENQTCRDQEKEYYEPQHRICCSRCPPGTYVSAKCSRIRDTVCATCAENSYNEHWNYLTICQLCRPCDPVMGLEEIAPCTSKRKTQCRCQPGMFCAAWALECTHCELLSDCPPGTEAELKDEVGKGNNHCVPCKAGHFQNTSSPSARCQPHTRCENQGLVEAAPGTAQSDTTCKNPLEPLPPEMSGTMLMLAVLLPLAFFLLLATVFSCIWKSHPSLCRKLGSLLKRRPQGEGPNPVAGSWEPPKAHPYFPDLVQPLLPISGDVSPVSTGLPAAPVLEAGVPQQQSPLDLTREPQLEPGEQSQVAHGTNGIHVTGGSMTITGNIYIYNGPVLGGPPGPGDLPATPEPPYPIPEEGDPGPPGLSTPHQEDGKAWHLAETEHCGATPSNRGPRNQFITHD
T7 sequence (Q07011 24-255 limits assumed): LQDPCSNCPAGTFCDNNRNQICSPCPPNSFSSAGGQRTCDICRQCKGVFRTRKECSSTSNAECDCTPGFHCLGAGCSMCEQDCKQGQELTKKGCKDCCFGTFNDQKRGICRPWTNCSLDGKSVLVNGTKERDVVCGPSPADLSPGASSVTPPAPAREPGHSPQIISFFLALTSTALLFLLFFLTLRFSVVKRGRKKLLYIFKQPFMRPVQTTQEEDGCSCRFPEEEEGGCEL

B1: FLAG-tagged soluble form of TNF-gamma-beta (aa 72-251) (ligand, human, UniProt O95150 72-251, looked up)
chain: LKGQEFAPSHQQVYAPLRADGDKPRAHLTVVRQTPTQHFKNQFPALHWEHELGLAFTKNRMNYTNKFLLIPESGDYFIYSQVTFRGMTSECSEIRQAGRPNKPDSITVVITKVTDSYPEPTQLLMGTKSVCEVGSNWFQPIYLGAMFSLQEGDKLMVNVSDISLVDYTKEDKTFFGAFLL
notes: also called FLAG-TL1β; FLAG-TNF-gamma-beta; not shown: FLAG tag of vector pFLAGCMV1
no binding: all assays above
